Reference: patent US20240067944A1 (published 2024)
No end group written: not given here.

Tests used:
Test in all cases: ELISA, biotinylated 12-mer peptide on streptavidin, 2 ug/mL FLAG-tagged VHH, anti-FLAG-HRP
PYDAADLDPTEN = target: T1, PYDAADLDPTEN (human)
T1 peptide: PYDAADLDPTEN-biotin
Procedure: (§1) To determine whether the binding epitope of the anti-FX VHH polypeptide designated “cmpd #1” are located inside the activation peptide (AP) of human FX (SEQ ID NO:2), an ELISA assay was setup. 41 unique 12-mer peptide fragments spanning the 52 residues of the activation peptide with one amino acid spacing were immobilized in microtiter plate wells followed by incubation with the VHH polypeptide to be tested, and detection of bound ligand was performed by addition of a secondary HRP-labelled antibody.
(§2) The peptides were C-terminally conjugated to biotin and 50 μL of 1 μg/mL peptide solution was used for immobilization in discrete wells of the microtiter plate which was pre-coated with 1 μg/mL streptavidin. Each well was washed with washing buffer (10 mM Tris, 150 mM NaCl, 2.5 mM CaCl₂), 0.05% Tween 20, pH 8.60) followed by addition of 50 μL of 2 μg/mL FLAG-tagged anti-FX VHH polypeptide or IgG antibody to be tested. After 1 hour non-bound VHH polypeptide was washed off using washing buffer.
(§3) Bound anti-FX activation peptide ligand was detected by first binding a HRP-labelled secondary antibody (for FLAG-tagged VHH polypeptide: Anti-FLAG mAb M2-Peroxidase (HRP) (Sigma Aldrich, US) for 1 hour, and then adding 100 μL TMB-1 ELISA substrate (Kem-En-Tec Diagnostics, Denmark).

ATSSSGEAPDSI = target: T2, ATSSSGEAPDSI (human)
T2 peptide: ATSSSGEAPDSI-biotin
Procedure: as §1, §2, §3

SSSGEAPDSITW = target: T3, SSSGEAPDSITW (human)
T3 peptide: SSSGEAPDSITW-biotin
Procedure: as §1, §2, §3

APDSITWKPYDA = target: T4, APDSITWKPYDA (human)
T4 peptide: APDSITWKPYDA-biotin
Procedure: as §1, §2, §3

SSGEAPDSITWK = target: T5, SSGEAPDSITWK (human)
T5 peptide: SSGEAPDSITWK-biotin
Procedure: as §1, §2, §3

WKPYDAADLDPT = target: T6, WKPYDAADLDPT (human)
T6 peptide: WKPYDAADLDPT-biotin
Procedure: as §1, §2, §3

ADLDPTENPFDL = target: T7, ADLDPTENPFDL (human)
T7 peptide: ADLDPTENPFDL-biotin
Procedure: as §1, §2, §3

PFDLLDFNQTQP = target: T8, PFDLLDFNQTQP (human)
T8 peptide: PFDLLDFNQTQP-biotin
Procedure: as §1, §2, §3

SVAQATSSSGEA = target: T9, SVAQATSSSGEA (human)
T9 peptide: SVAQATSSSGEA-biotin
Procedure: as §1, §2, §3

TQPERGDNNLTR = target: T10, TQPERGDNNLTR (human)
T10 peptide: TQPERGDNNLTR-biotin
Procedure: as §1, §2, §3

DLLDFNQTQPER = target: T11, DLLDFNQTQPER (human)
T11 peptide: DLLDFNQTQPER-biotin
Procedure: as §1, §2, §3

PDSITWKPYDAA = target: T12, PDSITWKPYDAA (human)
T12 peptide: PDSITWKPYDAA-biotin
Procedure: as §1, §2, §3

TWKPYDAADLDP = target: T13, TWKPYDAADLDP (human)
T13 peptide: TWKPYDAADLDP-biotin
Procedure: as §1, §2, §3

AADLDPTENPFD = target: T14, AADLDPTENPFD (human)
T14 peptide: AADLDPTENPFD-biotin
Procedure: as §1, §2, §3

ENPFDLLDFNQT = target: T15, ENPFDLLDFNQT (human)
T15 peptide: ENPFDLLDFNQT-biotin
Procedure: as §1, §2, §3

EAPDSITWKPYD = target: T16, EAPDSITWKPYD (human)
T16 peptide: EAPDSITWKPYD-biotin
Procedure: as §1, §2, §3

NPFDLLDFNQTQ = target: T17, NPFDLLDFNQTQ (human)
T17 peptide: NPFDLLDFNQTQ-biotin
Procedure: as §1, §2, §3

LDFNQTQPERGD = target: T18, LDFNQTQPERGD (human)
T18 peptide: LDFNQTQPERGD-biotin
Procedure: as §1, §2, §3

ELISA signal normalized relative to the background signal (PYDAADLDPTEN): 0.83 relative to background
ELISA signal normalized relative to the background signal (ATSSSGEAPDSI): 0.98 relative to background
ELISA signal normalized relative to the background signal (SSSGEAPDSITW): 0.86 relative to background
ELISA signal normalized relative to the background signal (APDSITWKPYDA): 1.06 relative to background
ELISA signal normalized relative to the background signal (SSGEAPDSITWK): 0.88 relative to background
ELISA signal normalized relative to the background signal (WKPYDAADLDPT): 0.89 relative to background
ELISA signal normalized relative to the background signal (ADLDPTENPFDL): 0.91 relative to background
ELISA signal normalized relative to the background signal (PFDLLDFNQTQP): 4.95 relative to background
ELISA signal normalized relative to the background signal (SVAQATSSSGEA): 0.96 relative to background
ELISA signal normalized relative to the background signal (TQPERGDNNLTR): 1.05 relative to background
ELISA signal normalized relative to the background signal (DLLDFNQTQPER): 3.08 relative to background
ELISA signal normalized relative to the background signal (PDSITWKPYDAA): 1.05 relative to background
ELISA signal normalized relative to the background signal (TWKPYDAADLDP): 1.13 relative to background
ELISA signal normalized relative to the background signal (AADLDPTENPFD): 0.88 relative to background
ELISA signal normalized relative to the background signal (ENPFDLLDFNQT): 4 relative to background
ELISA signal normalized relative to the background signal (EAPDSITWKPYD): 0.97 relative to background
ELISA signal normalized relative to the background signal (NPFDLLDFNQTQ): 3.13 relative to background
ELISA signal normalized relative to the background signal (LDFNQTQPERGD): 0.97 relative to background
B1: Cmpd #1 (monovalent anti-FX VHH polypeptide, VHH-1.1) (VHH)
VHH: EVQLVESGGGLVQPGGSLRLSCAASGSIGAFDAMGWYRQAPGKQRELVAGIMVSRGNTNYTDSVKGRFTISRDNAKNTVYLQMNSLKPEDTAVYYCKAVKRPGPGYLEVWGQGTLVTVSS
notes: No protractor
